Substitutions are numbered along the chain they refer to.
B1: anti-IL-18BP antibody variant BP-04.04 (antibody, V domains shown)
VH: QVQLVQSGAEVKKPGASVKVSCKASGYTFTDYDMHWVRQAPGQGLEWMGIISTYYGDVSYAQKKQGRVTMTRDKSTSTVYMELSSLRSEDTAVYYCARSGTYNYGTRESHPLDYWGQGTLVTVSS
VL: DIQMTQSPSSVSASVGDRVTITCRASDNVYSNLAWYQQKPGKAPKLLIYGAISLADGVPSRFSGSGSGTDFTLTISSLQPEDFATYYCQHFWGNPYTFGQGTKLEIK
B2: anti-IL-18BP antibody variant BP-04.17 (antibody, V domains shown)
VH: B1 VH with N103Y
VL: B1 VL
B3: anti-IL-18BP antibody variant BP-04.11 (antibody, V domains shown)
VH: B1 VH with I51Y, D57V, K64F, P111A
VL: B1 VL
B4: anti-IL-18BP antibody variant BP-04.18 (antibody, V domains shown)
VH: B1 VH with P111A
VL: B1 VL
B5: anti-IL-18BP antibody variant BP-04.20 (antibody, V domains shown)
VH: B1 VH with D57V, K64F, N103Y
VL: B1 VL
B6: anti-IL-18BP antibody variant BP-04.27 (antibody, V domains shown)
VH: B1 VH with K64F, N103Y, P111A, L112F
VL: B1 VL
B7: anti-IL-18BP antibody variant BP-04.13 (antibody, V domains shown)
VH: B1 VH with K64F, N103Y, L112F
VL: B1 VL
B8: anti-IL-18BP antibody variant BP-04.21 (antibody, V domains shown)
VH: B1 VH with D57V, K64F, P111A
VL: B1 VL
B9: anti-IL-18BP antibody variant BP-04.23 (antibody, V domains shown)
VH: B1 VH with I51Y, K64F, N103Y, P111A, L112F
VL: B1 VL
B10: anti-IL-18BP antibody variant BP-04.06 (antibody, V domains shown)
VH: B1 VH with D57V, N103Y
VL: B1 VL
B11: anti-IL-18BP antibody variant BP-04.19 (antibody, V domains shown)
VH: B1 VH with D57V, K64F, N103Y, P111A, L112F
VL: B1 VL
B12: anti-IL-18BP antibody variant BP-04.32 (antibody, V domains shown)
VH: B1 VH with I51Y, K64F, N103Y, P111A
VL: B1 VL
B13: anti-IL-18BP antibody variant BP-04.30 (antibody, V domains shown)
VH: B1 VH with N103Y, P111A
VL: B1 VL
B14: anti-IL-18BP antibody variant BP-04.01 (antibody, V domains shown)
VH: QVQLVQSGAEVKKPGASVKVSCKASGYTFTDYDMWVRQAPGQGLEWMGIISTYYGDVSYAIKFQGRVTMTRDKSTSTVYMELSSLRSEDTAVYYCARSGTYYYGTRESALDYWGQGTLVTVSS
VL: B1 VL
B15: anti-IL-18BP antibody variant BP-04.31 (antibody, V domains shown)
VH: B1 VH with D57V, K64F, N103Y, P111A
VL: B1 VL
B16: anti-IL-18BP antibody variant BP-04.02 (antibody, V domains shown)
VH: B1 VH with M34L, K64F, T101M, N103Y, P111A
VL: B1 VL
B17: anti-IL-18BP antibody variant BP-04.12 (antibody, V domains shown)
VH: B1 VH with I51Y, D57V, N103Y, P111A
VL: B1 VL
B18: anti-IL-18BP antibody variant BP-04.22 (antibody, V domains shown)
VH: B1 VH with D57V, N103Y, P111A
VL: B1 VL
B19: anti-IL-18BP antibody variant BP-04.14 (antibody, V domains shown)
VH: B1 VH with K64F, P111A, L112F
VL: B1 VL
B20: anti-IL-18BP antibody variant BP-04.26 (antibody, V domains shown)
VH: B1 VH with I51Y, D57V, K64F, N103Y, P111A
VL: B1 VL
B21: anti-IL-18BP antibody variant BP-04.16 (antibody, V domains shown)
VH: B1 VH with N103Y, P111A, L112F
VL: B1 VL
B22: anti-IL-18BP antibody variant BP-04.10 (antibody, V domains shown)
VH: B1 VH with I51Y, D57V, K64F, N103Y
VL: B1 VL
B23: anti-IL-18BP antibody variant BP-04.05 (antibody, V domains shown)
VH: B1 VH with D57V, N103Y, P111A, L112F
VL: B1 VL
B24: anti-IL-18BP antibody variant BP-04.03 (antibody, V domains shown)
VH: B1 VH with K64F, D90N, N103Y, S109Q, P111A
VL: B1 VL
B25: anti-IL-18BP antibody variant BP-04.24 (antibody, V domains shown)
VH: B1 VH with I51Y, K64F, N103Y
VL: B1 VL

What was measured:
[1] = molecular target: T1, Avi/His-HuIL18BPa (recombinant human IL-18BP isoform A with Avi and poly-His tags) (human, biotinylated with BirA on the Avi tag in some assays); experiment: cell-based or functional assay
T1 chain: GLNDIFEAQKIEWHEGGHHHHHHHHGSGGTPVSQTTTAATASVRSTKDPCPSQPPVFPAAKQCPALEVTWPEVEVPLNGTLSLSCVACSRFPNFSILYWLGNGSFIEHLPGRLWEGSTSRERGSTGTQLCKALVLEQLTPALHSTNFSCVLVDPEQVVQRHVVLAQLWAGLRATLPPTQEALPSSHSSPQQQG

[2] = molecular target: T2, Avi/HisMsIL18BPd (recombinant mouse IL-18BP with Avi and poly-His tags) (mouse, biotinylated with BirA on the Avi tag in some assays); experiment: cell-based or functional assay
T2 chain: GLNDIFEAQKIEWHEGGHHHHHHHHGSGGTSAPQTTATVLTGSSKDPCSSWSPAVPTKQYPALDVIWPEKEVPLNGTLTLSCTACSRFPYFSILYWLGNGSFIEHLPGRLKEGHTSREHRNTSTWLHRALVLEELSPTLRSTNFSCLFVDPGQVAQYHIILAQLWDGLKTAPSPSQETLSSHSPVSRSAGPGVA

[3] = molecular target: T1, Avi/His-HuIL18BPa (recombinant human …); experiment: SPR Biacore T200, IgG captured on Protein A/G
[4] = molecular target: T3, His/Avi-CynoIL18BP (recombinant cynomolgus IL-18BP with His and Avi tags) (cynomolgus monkey); experiment: SPR Biacore T200, IgG captured on Protein A/G
T3 construct: also called cynomolgus IL-18BP-Avi-His
T3 chain: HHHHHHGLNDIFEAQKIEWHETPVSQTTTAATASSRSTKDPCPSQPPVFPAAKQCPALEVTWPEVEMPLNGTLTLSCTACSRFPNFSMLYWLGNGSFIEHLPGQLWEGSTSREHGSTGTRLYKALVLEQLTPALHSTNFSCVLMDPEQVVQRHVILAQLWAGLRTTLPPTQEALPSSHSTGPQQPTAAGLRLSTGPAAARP

Binder	EC50 of IFNγ release, human PBMCs [1]	EC50 of IFNγ release, mouse splenocytes [2]	Kd [3]	koff [3]	kon [3]	Kd [4]	koff [4]	kon [4]
B1	18.6 nM	31.8 nM						
B2	8.89 nM	14.6 nM						
B3	3.94 nM	3.61 nM						
B4	11.3 nM	28.4 nM						
B5	4.06 nM	28.7 nM						
B6	1.28 nM	39.6 nM						
B7	16.6 nM	41.4 nM						
B8	4.48 nM	595 nM						
B9	146 nM	3.5 nM						
B10	1.32 nM	67.6 nM						
B11	3.1 nM	21.6 nM						
B12	0.838 nM	9.61 nM	20 nM	0.0074 s⁻¹	370000 M⁻¹ s⁻¹	59 nM	0.02 s⁻¹	340000 M⁻¹ s⁻¹
B13		7.43 nM						
B14		1.67 nM						
B15	6.3 nM							
B16	41.5 nM	12.3 nM						
B17	31.9 nM	0.865 nM						
B18	7.71 nM	368 nM						
B19	543 nM	21.2 nM						
B20	36.2 nM	6.02 nM						
B21	3.34 nM	220 nM						
B22	10.5 nM	501 nM						
B23	3.18 nM	4.92 nM	0.67 nM	0.00034 s⁻¹	510000 M⁻¹ s⁻¹	0.83 nM	0.00038 s⁻¹	460000 M⁻¹ s⁻¹
B24	10.5 nM	0.881 nM	1.9 nM	0.00091 s⁻¹	470000 M⁻¹ s⁻¹	3.1 nM	0.0013 s⁻¹	420000 M⁻¹ s⁻¹
B25	4.84 nM		16 nM	0.0047 s⁻¹	290000 M⁻¹ s⁻¹	29 nM	0.0059 s⁻¹	200000 M⁻¹ s⁻¹

From patent publication US20250333523A1 (Alector, published 2025)
